Legend:
[1] = target: recombinant ADAM12 (A Disintegrin and Metalloproteinase 12), activated by furin (UniProt O43184)
[2] = target: recombinant ADAM12 (A Disintegrin and Metalloproteinase 12), activated by furin (UniProt O43184); test: enzyme inhibition assay (fluorogenic FRET-peptide protease activity); 6-point dilution of PA12 incubated with 5 nM recombinant ADAM12 for 10 min before the substrate; 15 uM Dabcyl-LAQAhomopheRSK(FAM)-NH2, 25 mM Tris pH 8, 10^-3% Brij-35, 10 mM CaCl2, 15 uM furin inhibitor 1, RT; Ki inferred from dose-response curves

recombinant ADAM12 (A Disintegrin and Metalloproteinase 12), activated by furin, sequence (O43184 whole entry): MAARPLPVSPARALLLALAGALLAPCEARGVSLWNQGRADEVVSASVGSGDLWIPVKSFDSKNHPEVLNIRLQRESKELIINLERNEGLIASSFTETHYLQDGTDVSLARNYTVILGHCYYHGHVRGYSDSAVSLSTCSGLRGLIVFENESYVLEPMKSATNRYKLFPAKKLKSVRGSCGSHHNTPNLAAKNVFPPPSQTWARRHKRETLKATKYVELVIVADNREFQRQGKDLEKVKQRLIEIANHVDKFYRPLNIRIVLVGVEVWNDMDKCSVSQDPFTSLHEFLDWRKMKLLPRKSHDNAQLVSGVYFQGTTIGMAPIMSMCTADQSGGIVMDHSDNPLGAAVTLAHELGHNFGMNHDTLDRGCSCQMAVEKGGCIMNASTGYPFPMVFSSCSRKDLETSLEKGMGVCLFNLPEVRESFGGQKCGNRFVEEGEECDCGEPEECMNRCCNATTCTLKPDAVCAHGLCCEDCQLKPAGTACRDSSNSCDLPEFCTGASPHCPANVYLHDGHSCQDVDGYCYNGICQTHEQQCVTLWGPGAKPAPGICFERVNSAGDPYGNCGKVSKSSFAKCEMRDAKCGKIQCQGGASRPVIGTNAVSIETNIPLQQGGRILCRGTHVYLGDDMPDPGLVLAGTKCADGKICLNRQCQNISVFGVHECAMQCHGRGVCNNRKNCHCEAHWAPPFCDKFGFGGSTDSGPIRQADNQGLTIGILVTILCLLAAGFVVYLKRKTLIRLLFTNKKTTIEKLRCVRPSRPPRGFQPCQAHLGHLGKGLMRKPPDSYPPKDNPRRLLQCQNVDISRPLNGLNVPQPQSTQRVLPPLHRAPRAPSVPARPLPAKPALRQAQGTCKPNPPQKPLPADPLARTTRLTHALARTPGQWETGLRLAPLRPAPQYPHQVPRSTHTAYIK

B1: recombinant His-tagged human ADAM12 prodomain (amino acids 29-206) (domain or fragment)
chain: RGVSLWNQGRADEVVSASVGSGDLWIPVKSFDSKNHPEVLNIRLQRESKELIINLERNEGLIASSFTETHYLQDGTDVSLARNYTVILGHCYYHGHVRGYSDSAVSLSTCSGLRGLIVFENESYVLEPMKSATNRYKLFPAKKLKSVRGSCGSHHNTPNLAAKNVFPPPSQTWARRHK
- relative level of intact transmembrane HB-EGF on 12Z-HE cells (live-cell Myc immunostaining, flow cytometry) after 2 uM PA12 for 3 h [1]: 20%
- Ki [2]: 430 nM

From PMC4609913
